Experimental data reported in publication PMC6549140, “ATP hydrolysis by KaiC promotes its KaiA binding in the cyanobacterial circadian clock system” (Life Science Alliance, 2019).
“And” between values parts separate entries of the source, which are not always exact repeats. Equal entries are not always repeated.

Columns and labels:
[1] = target: T1, CI hexamer (hexameric CI domain M1–S253) (Thermosynechococcus vestitus, UniProt Q79V60); test: native mass spectrometry after trypsin digestion; type: binding; settings: KaiCAA incubated with 1 mM ATP, 37°C, 5 h; 150 mM ammonium acetate; 0.02 mg/ml trypsin up to 60 min
T1 construct: gene kaiC; CI domain M1-S253 made by trypsin digestion of KaiCAA (the S431A/T432A sites lie outside), hexamer

[2] = target: CI domain (M1–S253) of KaiCAA, tryptic fragment, hexamer (T. elongatus BP-1); test: native MS; KaiCAA hexamer (1 mM ATP, 5 h, 37°C) exchanged into 150 mM ammonium acetate and digested with 0.02 mg/ml trypsin for 0, 30 and 60 min, analysed directly
[3] = target: KaiCAA (KaiC with Ser431 and Thr432 both substituted with alanine), hexamer (T. elongatus BP-1) (UniProt Q79V60); test: native MS; KaiC mutant (20 uM) alone, hexamerised with 1 mM ATP, 5 h at 37°C, exchanged into 150 mM ammonium acetate pH 6.8, nanoflow ESI
[4] = target: KaiCAA (KaiC with Ser431 and Thr432 both substituted with alanine), hexamer (T. elongatus BP-1) (UniProt Q79V60); test: native MS; KaiC mutant (20 uM) alone, hexamerised with 1 mM AMPPNP, 5 h at 37°C, exchanged into 150 mM ammonium acetate pH 6.8, nanoflow ESI
[5] = target: KaiCDD (KaiC with Ser431 and Thr432 both substituted with aspartate), hexamer (T. elongatus BP-1) (UniProt Q79V60); test: native MS; KaiC mutant (20 uM) alone, hexamerised with 1 mM ATP, 5 h at 37°C, exchanged into 150 mM ammonium acetate pH 6.8, nanoflow ESI
[6] = target: KaiCDD (KaiC with Ser431 and Thr432 both substituted with aspartate), hexamer (T. elongatus BP-1) (UniProt Q79V60); test: native MS; KaiC mutant (20 uM) alone, hexamerised with 1 mM AMPPNP, 5 h at 37°C, exchanged into 150 mM ammonium acetate pH 6.8, nanoflow ESI
[7] = target: KaiC_(AA/E77Q) (KaiCAA with the catalytic glutamate Glu77 of the CI ATPase domain substituted by glutamine), hexamer (T. elongatus BP-1) (UniProt Q79V60); test: native MS; KaiC mutant (20 uM) alone, hexamerised with 1 mM ATP, 5 h at 37°C, exchanged into 150 mM ammonium acetate pH 6.8, nanoflow ESI
[8] = target: KaiCAA (KaiC with Ser431 and Thr432 both substituted with alanine), hexamer (T. elongatus BP-1) (UniProt Q79V60); test: native MS; 6:1, 6:3, 6:6 and 6:9 mixtures of KaiCAA and KaiA (up to excess KaiA), 1 mM ATP, 5 h at 37°C, nanoflow ESI
[9] = target: KaiCAA (KaiC with Ser431 and Thr432 both substituted with alanine), hexamer (T. elongatus BP-1) (UniProt Q79V60); test: native MS; 6:3 mixture of KaiC mutant (20 uM) and KaiA (10 uM), 1 mM ATP, 5 h at 37°C, 150 mM ammonium acetate pH 6.8, nanoflow ESI
[10] = target: KaiCDD (KaiC with Ser431 and Thr432 both substituted with aspartate), hexamer (T. elongatus BP-1) (UniProt Q79V60); test: as above
[11] = target: KaiC_(AA/E77Q) (KaiCAA with the catalytic glutamate Glu77 of the CI ATPase domain substituted by glutamine), hexamer (T. elongatus BP-1) (UniProt Q79V60); test: as above
[12] = target: KaiCAA (KaiC with Ser431 and Thr432 both substituted with alanine), hexamer (T. elongatus BP-1) (UniProt Q79V60); test: native MS; 6:3 mixture of KaiC mutant (20 uM) and KaiA (10 uM), 1 mM AMPPNP, 5 h at 37°C, 150 mM ammonium acetate pH 6.8, nanoflow ESI
[13] = target: KaiCDD (KaiC with Ser431 and Thr432 both substituted with aspartate), hexamer (T. elongatus BP-1) (UniProt Q79V60); test: as above

T1 sequence (Q79V60 1-253): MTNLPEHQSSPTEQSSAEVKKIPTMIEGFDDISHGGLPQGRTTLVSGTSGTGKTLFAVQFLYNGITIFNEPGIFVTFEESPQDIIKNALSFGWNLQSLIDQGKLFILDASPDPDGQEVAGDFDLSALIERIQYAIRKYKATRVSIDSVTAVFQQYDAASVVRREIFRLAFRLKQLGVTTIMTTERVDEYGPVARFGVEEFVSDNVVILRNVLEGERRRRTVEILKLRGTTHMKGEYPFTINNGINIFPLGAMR

For Nc1ncnc2c1ncn2[C@@H]1O[C@H](COP(=O)(O)OP(=O)(O)OP(=O)(O)O)[C@@H](O)[C@H]1O [ATP], the “native mass spectrometry after trypsin digestion” value [1] was “the hexameric CI domain (M1–S253) containing six ATP molecules”.

Molecule “CI domain (M1–S253) of KaiCAA, tryptic fragment, hexamer (domain or fragment)” has a stoichiometry N (subunits in the oligomer) [2] of 6.

Work on “KaiCAA (KaiC with Ser431 and Thr432 both substituted with alanine), hexamer (from UniProt Q79V60 1-518) (natural protein)” yielded a stoichiometry N (subunits in the oligomer) [3] of 6 and a stoichiometry N (subunits in the oligomer) [4] of 6.

Work on “KaiCDD (KaiC with Ser431 and Thr432 both substituted with aspartate), hexamer (from UniProt Q79V60 1-518) (natural protein)” yielded a stoichiometry N (subunits in the oligomer) [5] of 6 and a stoichiometry N (subunits in the oligomer) [6] of 6.

With “KaiC_(AA/E77Q) (KaiCAA with the catalytic glutamate Glu77 of the CI ATPase domain substituted by glutamine), hexamer (from UniProt Q79V60 1-518) (natural protein)” the stoichiometry N (subunits in the oligomer) [7] was 6.

B1: KaiA (natural protein)
chain: MAQSTALTICGLVYSPAIGQELVRLHTSDIDELVYFSSEREFCNYLEARRNSIACLILEWGEGTPQIITYLHHSATLLPAILIFPAAPAPPPAGPHYHIAEVILTTDQLDQLNRQIEEAITGFVKLCPGCAVPPHVLFRLPALKESSNVDPQHRLSQKLKERLGYLGVYYKRDTAFFFRRMSPADKRKLLDELRSIYRTIVLEYFNTDAKVNERIDEFVSKAFFADISVSQVLEIHVELMDTFSKQLKLEGRSEDILLDYRLTLIDVIAHLCEMYRRSIPREV
In the case of B1, the stoichiometry N (KaiA molecules per KaiC hexamer) [8] is reported as 2 and 4, the stoichiometry N (KaiA molecules per KaiC hexamer) [9] is reported as 2 and the stoichiometry N (KaiA molecules per KaiC hexamer) [10] is reported as 2. It also gave a stoichiometry N (KaiA molecules per KaiC hexamer) [11] of 2, a stoichiometry N (KaiA molecules per KaiC hexamer) [12] of 2 and a stoichiometry N (KaiA molecules per KaiC hexamer) [13] of 2.
